Measurements taken from US20050013803A1 (published 2005).

Legend:
Experiment in all cases: co-immunoprecipitation with anti-Taz antibody from infected BMK cells, Western blot
[1] = biological target: T1, polyoma virus large T antigen, wild-type (strain PTA), full length (murine polyoma virus, strain PTA)
T1 construct: mature; also called normal large T antigen; WT large T antigen

[2] = biological target: T2, polyoma virus small T antigen, wild-type (murine polyoma virus)
T2 construct: also called sT

[3] = biological target: T3, polyoma virus middle T antigen, wild-type (murine polyoma virus)
T3 construct: also called mT
T3 sequence (P0DOJ8 whole entry): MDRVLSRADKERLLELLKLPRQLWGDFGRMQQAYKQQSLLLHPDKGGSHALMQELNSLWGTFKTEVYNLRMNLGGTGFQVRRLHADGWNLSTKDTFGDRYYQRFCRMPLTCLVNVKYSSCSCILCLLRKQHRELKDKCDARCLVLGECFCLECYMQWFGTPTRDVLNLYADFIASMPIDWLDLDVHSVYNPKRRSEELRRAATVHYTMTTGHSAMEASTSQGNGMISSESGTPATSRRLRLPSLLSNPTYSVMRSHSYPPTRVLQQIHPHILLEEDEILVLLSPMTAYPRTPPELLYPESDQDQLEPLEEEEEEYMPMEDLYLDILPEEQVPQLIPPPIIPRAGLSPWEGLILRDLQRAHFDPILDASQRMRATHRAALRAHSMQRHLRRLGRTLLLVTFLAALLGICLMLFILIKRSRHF

T1 sequence (P0DOJ5 whole entry): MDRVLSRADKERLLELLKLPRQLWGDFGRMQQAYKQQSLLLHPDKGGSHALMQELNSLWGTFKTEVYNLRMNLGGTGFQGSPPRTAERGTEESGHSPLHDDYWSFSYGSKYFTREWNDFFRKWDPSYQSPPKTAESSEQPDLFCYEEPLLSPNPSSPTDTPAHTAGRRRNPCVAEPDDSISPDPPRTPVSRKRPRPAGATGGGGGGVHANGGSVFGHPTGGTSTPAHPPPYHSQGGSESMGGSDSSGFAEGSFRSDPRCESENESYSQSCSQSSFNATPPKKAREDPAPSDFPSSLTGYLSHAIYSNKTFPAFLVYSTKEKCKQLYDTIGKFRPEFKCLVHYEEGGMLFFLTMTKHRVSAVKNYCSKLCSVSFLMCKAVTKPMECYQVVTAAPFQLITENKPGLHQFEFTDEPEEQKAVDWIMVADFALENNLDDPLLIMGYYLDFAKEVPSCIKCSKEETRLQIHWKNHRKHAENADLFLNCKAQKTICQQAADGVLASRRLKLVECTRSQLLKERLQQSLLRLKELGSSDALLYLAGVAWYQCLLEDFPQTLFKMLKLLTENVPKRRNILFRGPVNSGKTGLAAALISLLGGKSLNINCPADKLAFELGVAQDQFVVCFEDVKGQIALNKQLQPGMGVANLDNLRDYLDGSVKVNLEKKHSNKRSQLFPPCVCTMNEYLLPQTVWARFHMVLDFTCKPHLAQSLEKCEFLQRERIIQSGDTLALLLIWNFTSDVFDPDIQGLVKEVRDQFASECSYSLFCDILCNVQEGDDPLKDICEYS
T2 sequence (P68834 whole entry): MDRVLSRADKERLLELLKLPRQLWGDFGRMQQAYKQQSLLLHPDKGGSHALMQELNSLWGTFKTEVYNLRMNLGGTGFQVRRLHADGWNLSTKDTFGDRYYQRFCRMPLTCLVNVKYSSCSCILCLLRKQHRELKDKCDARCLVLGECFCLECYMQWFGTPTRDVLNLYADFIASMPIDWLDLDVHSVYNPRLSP

B1: murine Taz (transcriptional co-activator with PDZ binding motif) (other, mouse, UniProt Q9EPK5 1-395, looked up)
chain: MNPSSVPHPLPPPGQQVIHVTQDLDTDLEALFNSVMNPKPSSWRKKILPESFFKEPDSGSHSRQSSTDSSGGHPGPRLAGGAQHVRSHSSPASLQLGTGAGAAGGPAQQHAHLRQQSYDVTDELPLPPGWEMTFTATGQRYFLNHIEKITTWQDPRKVMNQPLNHVNLHPSITSTSVPQRSMAVSQPNLAMNHQHQQVVATSLSPQNHPTQNQPTGLMSVPNALTTQQQQQQKLRLQRIQMERERIRMRQEELMRQEAALCRQLPMETETMAPVNTPAMSTDMRSVTNSSSDPFLNGGPYHSREQSTDSGLGLGCYSVPTTPEDFLSNMDEMDTGENSGQTPMTVNPQQTRFPDFLDCLPGTNVDLGTLESEDLIPLFNDVESALNKSEPFLTWL
notes: Endogenous protein immunoprecipitated from mouse cell extracts, or a library clone in yeast; also called mTaz
Which relative binding efficiency [1] does the source give for B1 here?
The relative binding efficiency was 1 ratio large T: middle T: small T.

And the relative binding efficiency [2]?
Its relative binding efficiency is 100 ratio large T: middle T: small T.

And the relative binding efficiency [3]?
The relative binding efficiency was 7 ratio large T: middle T: small T.
